Measurements published in publication PMC4775226, “Active and water-soluble form of lipidated Wnt protein is maintained by a serum glycoprotein afamin/α-albumin” (eLife, 2016).

T1: Tg-tagged human afamin (human, UniProt P43652 22-599)
T1 construct: human afamin with a long (36 residues) N-terminal tag peptide; cDNA was a gift from Luc Bélanger; built by the same strategy as the tagged Wnts (tag, TEV site); also called Tg-hAFM; Tg-AFM; source: Expi293F cells, transiently co-transfected with PA-tagged Wnts, in serum-free culture medium; not shown: TARGET (Tg) tag, N-terminal, kept
T1 sequence (looked up): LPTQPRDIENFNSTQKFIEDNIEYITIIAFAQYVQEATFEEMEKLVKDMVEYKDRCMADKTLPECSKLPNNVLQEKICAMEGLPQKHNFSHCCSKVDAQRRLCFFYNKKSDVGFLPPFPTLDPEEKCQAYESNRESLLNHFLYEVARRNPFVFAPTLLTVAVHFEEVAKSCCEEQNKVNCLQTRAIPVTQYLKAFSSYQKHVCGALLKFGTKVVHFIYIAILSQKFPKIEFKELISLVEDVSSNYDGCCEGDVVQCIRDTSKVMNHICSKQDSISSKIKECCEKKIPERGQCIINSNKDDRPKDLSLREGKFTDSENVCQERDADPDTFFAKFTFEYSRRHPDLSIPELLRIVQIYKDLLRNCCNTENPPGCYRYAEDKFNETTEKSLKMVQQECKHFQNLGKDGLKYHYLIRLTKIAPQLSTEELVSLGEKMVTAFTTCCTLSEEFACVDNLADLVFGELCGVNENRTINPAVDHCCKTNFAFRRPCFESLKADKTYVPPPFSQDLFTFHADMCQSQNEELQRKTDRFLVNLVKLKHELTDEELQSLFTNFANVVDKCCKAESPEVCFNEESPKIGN


Columns and labels:
Tg-tagged human afamin = target: T1, Tg-tagged human afamin; test: co-IP; anti-Tg antibody P20.1-Sepharose, serum-free culture media of Expi293F cells co-transfected with Tg-hAFM and PA-tagged human Wnts; immunoblot with biotinylated NZ-1; settings: partners not purified
[1] = target: T2, TARGET-tagged mouse Wnt3a (mouse, UniProt P27467 19-352); test: SEC; immunoaffinity-purified Wnt preparation on Superdex 200 10/300GL in TBS, no detergent; fractions on nonreducing SDS-PAGE, Coomassie stain and immunoblots; settings: both partners purified
T2 construct: Construct design (N-terminal region from the initiation Met) is in Supplementary file 1; also called Tg-Wnt3a; tagged Wnt3a; source: purified on P20.1-Sepharose (peptide elution), SEC; not shown: TARGET (Tg) tag, N-terminal, kept
T2 sequence (P27467 19-352): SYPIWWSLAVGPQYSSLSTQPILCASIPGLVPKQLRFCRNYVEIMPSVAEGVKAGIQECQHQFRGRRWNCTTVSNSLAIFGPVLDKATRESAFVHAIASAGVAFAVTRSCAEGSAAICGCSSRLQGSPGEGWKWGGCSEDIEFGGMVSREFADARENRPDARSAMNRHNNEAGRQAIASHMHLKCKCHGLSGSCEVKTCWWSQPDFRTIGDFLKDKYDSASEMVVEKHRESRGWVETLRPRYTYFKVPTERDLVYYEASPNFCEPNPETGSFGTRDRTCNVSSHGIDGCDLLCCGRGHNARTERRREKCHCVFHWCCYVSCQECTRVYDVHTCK

Row | Binder | binding result (Tg-tagged human afamin) | stoichiometry N [1]
1 | PA-tagged human Wnt3 (natural protein, UniProt P56703 22-355, looked up) GYPIWWSLALGQQYTSLGSQPLLCGSIPGLVPKQLRFCRNYIEIMPSVAEGVKLGIQECQHQFRGRRWNCTTIDDSLAIFGPVLDKATRESAFVHAIASAGVAFAVTRSCAEGTSTICGCDSHHKGPPGEGWKWGGCSEDADFGVLVSREFADARENRPDARSAMNKHNNEAGRTTILDHMHLKCKCHGLSGSCEVKTCWWAQPDFRAIGDFLKDKYDSASEMVVEKHRESRGWVETLRAKYSLFKPPTERDLVYYENSPNFCEPNPETGSFGTRDRTCNVTSHGIDGCDLLCCGRGHNTRTEKRKEKCHCIFHWCCYVSCQECIRIYDVHTCK | binds | –
2 | bovine afamin from the serum of the culture medium (natural protein, UniProt G3MYZ3 22-604, looked up, bovine afamin, serum-derived; Glycoprotein of about 70 kDa; also called AFM; α-albumin; source: endogenous, fetal calf serum in the culture medium) LPTQPQDVDDVRITQKFIDDNIGYITIIAFAQYIQEASFEEVEMLVKAMTEYRDKCLADRTLPECSKLANEVLLENICAMEGLPQKYNFSHCCHKVDFERRLCFFHNKKADIGLLPPLPTLDPEEKCQTYKNNRESFLNNYVYEVSRRNPFVFAPTLLTVAARFEEMTKTCCEEQEKANCFQTKAEPFIYYLKALSSYQKNACRALMKFGRQILQSINIAILSQKFPKIGFKQLTSLLEDVSSKYDGCCEGDVVQCIRGRSKVMSHICSKQDSISSKIKDCCEKKIPERGECIIYSNKDDRPNDLSLREAKFIESDNVCEKRDADQANFMAEFLYEYSRRHPELSTPELLRIAKVYKDLLKECCNMENPPECYRHAENRFNETTEKSLKIVQRECEHFQNLGKDDLKYHYLINLTKLAPQLSTEELTFLGKEMVMALTTCCTLSEEFACVDNLVDLVLGELCGINENRNINPAVDHCCKTNFAFRRSCFESLEADKTYVPPSTSQGLFTFHADLCQAHNEELQRKKDRFLVNLVKLKPELAGEELWSLLADFTNVVEKCCKAQEPEACFKEESPKLAAKSQAA | – | 1
